Assay results: patent US20230265198A1 (TWIST BIOSCIENCE, published 2023)

Tests used:
[1] = biological target: T1, neuropilin-1 (NRP1) on HEK293 cells overexpressing NRP1 (UniProt O14786 22-923, limits assumed); test: flow cytometry, HEK293-NRP1 vs HEK293
T1 construct: whole, on cells

[2] = biological target: neuropilin-1 (NRP1), analyte in SPR (UniProt O14786 22-644, limits assumed); test: SPR, Carterra LSA, antibody coupled
Protocol: SPR experiments were performed on a Carterra LSA SPR biosensor equipped with a HC30M chip at 25° C. in HBS-TE. Antibodies were diluted to 10 μg/mL and amine-coupled to the sensor chip by EDC/NHS activation, followed by ethanolamine HCl quenching. Increasing concentrations of analyte were flowed over the sensor chip in HBS-TE with 0.5 mg/mL BSA with 5-minute association and 15-minute dissociation. Following each injection cycle the surface was regenerated with 2× 30-second injections of IgG elution buffer (Thermo). Data were analyzed in Carterra's Kinetics Tool software with 1:1 binding model.

| Binder | 100 nM FACS (MFI Ratio) [1] | Kd [2] [nM] | koff [2] [s⁻¹] | kon [2] [M⁻¹ s⁻¹] | binding result [2] |
| --- | --- | --- | --- | --- | --- |
| NRP1-4 (VHH) VHH: EVQLVESGGGLVQPGGSLRLSCAASGNIFINNAMGWFRQAPGKERELVAAITSSSGRRWYADSVKGRFTISADNSKNTAYLQMNSLKPEDTAVYYCAARRIVNVEGAYRDWGQGTLVTVSS | 30.9 | 183 | 0.047 | 256000 |  |
| NRP1-6 (VHH) VHH: EVQLVESGGGLVQPGGSLRLSCAASGLTYTMNWFRQAPGKEREFVAGFAGIGTVTSYADSVKGRFTISADNSKNTAYLQMNSLKPEDTAVYYCSGFDGYSGSDWGQGTLVTVSS | 0.5 |  |  |  | no binding |
| NRP1-134 (antibody, IgG2, V domains shown) VH: EVQLLESGGGLVQPGGSLRLSCAASGFTFSNYGVSWVRQAPGKGLEWVSEISPSGKKKYYADSVKGRFTISRDNSKNTLYLQMNSLRAEDTAVYYCAKTTDIQRLNSAFDYWGQGTLVTVSS VL: DIQMTQSPSSLSASVGDRVTITCRASQPIAYFLSWYQQKPGKAPKLLIYDASSLHTGVPSRFSGSGSGTDFTLTISSLQPEDFATYYCSSRDKSGSRLVTFGQGTKVEIK | 1.9 |  |  |  | no binding |
| NRP1-115 (antibody, IgG2, V domains shown) VH: EVQLLESGGGLVQPGGSLRLSCAASGFTFGHYEMDWVRQAPGKGLEWVSSIDDRGRYTYYADSVKGRFTISRDNSKNTLYLQMNSLRAEDTAVYYCARSKIAFDYWGQGTLVTVSS VL: DIQMTQSPSSLSASVGDRVTITCRASQNIRSYLNWYQQKPGKAPKLLIYGRNKRPSGVPSRFSGSGSGTDFTLTISSLQPEDFATYYCQQSYENPLTFGQGTKVEIK | 0.8 | 87.4 | 0.00951 | 109000 |  |
| NRP1-132 (antibody, IgG2, V domains shown) VH: EVQLLESGGGLVQPGGSLRLSCAASGFTFGDHGMGWVRQAPGKGLEWVSYITPKGDHTYYADSVKGRFTISRDNSKNTLYLQMNSLRAEDTAVYYCASLPKRGPRFDYWGQGTLVTVSS VL: DIQMTQSPSSLSASVGDRVTITCRASQNIRSYLNWYQQKPGKAPKLLIYRLSVLQSGVPSRFSGSGSGTDFTLTISSLQPEDFATYYCQQGYTLPWTFGQGTKVEIK | 0.8 |  |  |  | no binding |
| NRP1-35 (VHH) VHH: EVQLVESGGGLVQPGGSLRLSCAASGSIFSFNAMGWFRQAPGKERELVASITPGGNINYADSVKGRFTISADNSKNTAYLQMNSLKPEDTAVYYCARDVEGGWYGLSYGMDVWGQGTLVTVSS | 2.9 |  |  |  | no binding |
| NRP1-25 (VHH) VHH: EVQLVESGGGLVQPGGSLRLSCAASGRTSNIYAMGWFRQAPGKERELVAAIRWSGVETYYADSVKGRFTISADNSKNTAYLQMNSLKPEDTAVYYCAADRMYRPVGNQYDWGQGTLVTVSS | 8.9 | 831 | 0.00969 | 11700 |  |
| NRP1-204 (antibody, IgG2, V domains shown) VH: EVQLLESGGGLVQPGGSLRLSCAASGFTFSAFAMSWVRQAPGKGLEWVSGTSGSGGSTYYADSVKGRFTISRDNSKNTLYLQMNSLRAEDTAVYYCARHRAYSYGLDYWGQGTLVTVSS VL: DIQMTQSPSSLSASVGDRVTITCRARQSISTYLNWYQQKPGKAPKLLIYSASTLESGVPSRFSGSGSGTDFTLTISSLQPEDFATYYCQQSYRTPWTFGGGTKVEIK | 9.2 | 408000 | 0.0897 | 220 |  |
| NRP1-210 (antibody, IgG2, V domains shown) VH: EVQLLESGGGLVQPGGSLRLSCAASGFTFSSYVMAWVRQAPGKGLEWVSTISASGGTTYYADSVKGRFTISRDNSKNTLYLQMNSLRAEDTAVYYCAKVGSGWYFWGQGTLVTVSS VL: DIQMTQSPSSLSASVGDRVTITCRTSQSISRYLNWYQQKPGKAPKLLIYAASSLQGGVPSRFSGSGSGTDFTLTISSLQPEDFATYYCQQSYTVPITFGGGTKVEIK | 2.1 |  |  |  | no binding |
| NRP1-15 (VHH) VHH: EVQLVESGGGLVQPGGSLRLSCAASGFTFSNYDMGWFRQAPGKEREFVAAISWSGTLTSYADSVKGRFTISADNSKNTAYLQMNSLKPEDTAVYYCARQRETGHLILYSDYYYGMDVWGQGTLVTVSS | 6.5 |  |  |  | no binding |
| NRP1-125 (antibody, IgG2, V domains shown) VH: EVQLLESGGGLVQPGGSLRLSCAASGFTFSGYDMQWVRQAPGKGLEWVSSISGYGSTTYYADSVKGRFTISRDNSKNTLYLQMNSLRAEDTAVYYCAKGRRIFDYWGQGTLVTVSS VL: DIQMTQSPSSLSASVGDRVTITCRASQTIERRLNWYQQKPGKAPKLLIYRKSNRPSGVPSRFSGSGSGTDFTLTISSLQPEDFATYYCQQNNNWPTTFGQGTKVEIK | 0.6 |  |  |  | no binding |
| NRP1-18 (VHH) VHH: EVQLVESGGGLVQPGGSLRLSCAASGFRFSSYGMGWFRQAPGKEREFVAFISGNPSRTYYADSVKGRFTISADNSKNTAYLQMNSLKPEDTAVYYCAARPYQKYNWASASYNWGQGTLVTVSS | 20.8 | 290 | 0.00374 | 12900 |  |
| NRP1-11 (VHH) VHH: EVQLVESGGGLVQPGGSLRLSCAASGRTFTTYPMGWFRQAPGKEREFVAAITWNGASTSYADSVKGRFTISADNSKNTAYLQMNSLKPEDTAVYYCAKGGGYSGYDYDYWGQGTLVTVSS | 2.3 |  |  |  | no binding |
| NRP1-128 (antibody, IgG2, V domains shown) VH: EVQLLESGGGLVQPGGSLRLSCAASGFTFSRYAMNWVRQAPGKGLEWVSAISGSGGNTYYADSVKGRFTISRDNSKNTLYLQMNSLRAEDTAVYYCARVRRGGATDYWGQGTLVTVSS VL: DIQMTQSPSSLSASVGDRVTITCRASQDVSSGVAWYQQKPGKAPKLLIYGKNIRPSGVPSRFSGSGSGTDFTLTISSLQPEDFATYYCQQTYSPPLTFGQGTKVEIK | 1.2 |  |  |  | no binding |
| NRP1-8 (VHH) VHH: EVQLVESGGGLVQPGGSLRLSCAASGFPLDDYAMGWFRQAPGKEREFVAAINWSGGSAVYADSVKGRFTISADNSKNTAYLQMNSLKPEDTAVYYCMRGGSYGDYGGYWGQGTLVTVSS | 3.1 | 91.1 | 0.00283 | 31100 |  |
| NRP1-118 (antibody, IgG2, V domains shown) VH: EVQLLESGGGLVQPGGSLRLSCAASGFTFNKYPMMWVRQAPGKGLEWVSRISVAGRRTAYADSVKGRFTISRDNSKNTLYLQMNSLRAEDTAVYYCAKWRREGYTGSKFDYWGQGTLVTVSS VL: DIQMTQSPSSLSASVGDRVTITCSASQDINKYLNWYQQKPGKAPKLLIYGTSNLESGVPSRFSGSGSGTDFTLTISSLQPEDFATYYCHTWDHHHTTGEHNVFGQGTKVEIK | 4.5 |  |  |  | no binding |
| NRP1-33 (VHH) VHH: EVQLVESGGGLVQPGGSLRLSCAASGRTFSSGTMGWFRQASGKEREFVARINSDGSTNYADSVKGRFTISADNSKNTAYLQMNSLKPEDTAVYYCAKWSSSWYGYYYYGMDVWGQGTLVTVSS | 335 | 10.8 | 0.0167 | 1.55e+06 |  |
